Measured values from patent publication US20090104196.

Molecular target: AR co-purified in the TAP-LSD1/AR complex (UniProt P10275)
Sequence (P10275 whole entry, one chain of several): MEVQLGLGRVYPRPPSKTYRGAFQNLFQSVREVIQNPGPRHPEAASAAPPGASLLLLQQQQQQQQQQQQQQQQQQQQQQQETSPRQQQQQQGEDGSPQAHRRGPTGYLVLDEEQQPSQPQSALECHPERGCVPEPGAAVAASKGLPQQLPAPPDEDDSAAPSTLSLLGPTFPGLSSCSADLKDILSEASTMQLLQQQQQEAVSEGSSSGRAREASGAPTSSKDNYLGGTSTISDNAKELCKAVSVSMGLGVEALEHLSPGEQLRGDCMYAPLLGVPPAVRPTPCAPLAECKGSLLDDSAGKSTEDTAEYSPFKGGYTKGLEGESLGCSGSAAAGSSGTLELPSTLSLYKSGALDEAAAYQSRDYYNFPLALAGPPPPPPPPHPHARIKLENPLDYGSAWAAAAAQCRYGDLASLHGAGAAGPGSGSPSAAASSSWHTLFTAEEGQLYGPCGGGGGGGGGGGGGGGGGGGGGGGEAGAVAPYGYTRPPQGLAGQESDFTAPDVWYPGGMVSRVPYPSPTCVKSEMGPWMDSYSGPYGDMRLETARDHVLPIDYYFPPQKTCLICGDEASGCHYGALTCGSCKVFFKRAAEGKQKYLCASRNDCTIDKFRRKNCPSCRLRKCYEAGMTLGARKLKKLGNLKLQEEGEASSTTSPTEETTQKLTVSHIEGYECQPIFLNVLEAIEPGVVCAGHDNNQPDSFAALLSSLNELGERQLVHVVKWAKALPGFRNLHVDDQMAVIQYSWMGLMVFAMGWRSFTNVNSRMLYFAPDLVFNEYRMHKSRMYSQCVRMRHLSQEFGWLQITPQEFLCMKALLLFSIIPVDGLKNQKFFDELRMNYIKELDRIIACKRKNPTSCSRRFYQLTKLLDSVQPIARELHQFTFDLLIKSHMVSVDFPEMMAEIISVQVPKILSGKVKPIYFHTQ

## TAP-LSD1 (LSD1 with N-terminal TAP tag), tandem affinity purified
  demethylation of dimethyl H3-K9 on HeLa nucleosomes in vitro (Western blot): The TAP-LSD1/AR complex demethylated dimethyl H3-K9 in vitro, whereas TAP-LSD1 or the TAP control failed to do so
